This note sets out measurements from US20240109974A1 (SHANDONG SIMCERE BIOPHARMACEUTICAL, published 2024).

In assay [1] the target is T1, human TNFR2 on the surface of CHO-TNFR2 cells (human, UniProt P20333 23-461).
T1 construct: whole, on cells
T1 sequence (looked up): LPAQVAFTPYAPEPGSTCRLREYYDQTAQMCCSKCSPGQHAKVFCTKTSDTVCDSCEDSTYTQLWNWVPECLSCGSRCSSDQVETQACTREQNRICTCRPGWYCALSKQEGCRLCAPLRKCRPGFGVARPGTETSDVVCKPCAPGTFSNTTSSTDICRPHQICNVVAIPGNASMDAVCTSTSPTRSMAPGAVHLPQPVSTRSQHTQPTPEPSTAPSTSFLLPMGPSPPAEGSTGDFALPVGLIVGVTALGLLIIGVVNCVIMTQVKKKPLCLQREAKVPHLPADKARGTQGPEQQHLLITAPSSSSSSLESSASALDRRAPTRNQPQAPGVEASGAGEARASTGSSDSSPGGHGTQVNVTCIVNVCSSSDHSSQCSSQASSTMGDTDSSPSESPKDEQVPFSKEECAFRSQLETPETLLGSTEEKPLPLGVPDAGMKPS
Kind of assay: flow cytometry on CHO-TNFR2 cells; EC50 against 224-WT. As for the experimental part:
The transfected full-length plasmid of human TNFR2 was purchased from Sino Biological (Cat #HG10417-UT, NCBI Ref Seq: NM_001066.2). The experiment was conducted at a cell density within 80%. The cell medium was discarded; the cells were rinsed with PBS, and digested with 1 ml trypsin for 2 minutes; the digestion was stopped with a Ham's F12 complete medium containing 10% FBS, and then a cell suspension was made. The cell suspension was counted, and then an appropriate amount of cell suspension was centrifuged at 350×g; the supernatant was discarded; a corresponding volume of blocking solution (10% FBS+PBS) at a density of 1×10⁷ cells/ml was added to resuspend the cells, and the mixture was incubated at 4° C. for 30 minutes. After the incubation, the mixture was centrifuged at 350×g to remove the supernatant, and the cells were resuspended in a staining buffer (2% FBS+PBS) to a density of 2×10⁶ cells/ml, and spread onto a 96-well plate, with 50 μl of cell suspension added to each well for later use. The antibody was diluted with PBS for 10-fold gradient dilution from the highest concentration of 20 μg/m (twice the concentration); the diluted antibody was added to the well containing 50 μl of cell suspension, and placed on a microplate shaker for shaking at 500 rpm for 1 minute, so that the antibody was fully mixed with the cells; the mixture was incubated at 4° C. for 1 h. After the incubation, the cells were washed twice with the staining buffer, with 100 μl per well, and centrifuged at 350-g for 5 minutes, and the supernatant was discarded. The PE goat anti-Human IgG Fc antibody (ebioscience, Cat #12-4998-82) was diluted 250-fold with the staining buffer, with a volume of 100 μl per well added to the washed cell wells; the mixture was mixed evenly, and stained at 4° C. for 30 minutes. After the staining, similarly, the cells were washed twice with the staining buffer; finally, the cells were resuspended in 200 μl of staining buffer; signals were detected by a flow cytometer (Thermo Attune NxT). The stronger the signal, the stronger the binding ability of an antibody to TNFR2. The binding curve of an antibody was drawn with antibody concentration as the abscissa and corresponding mean fluorescence intensity (MFI) fold as the ordinate, and fitted with four parameters (GraphPad Prism9) to calculate the EC50 value.

The target in assay [2] is T2, human TNFR2 (Novoprotein, Cat #C830) (human, UniProt P20333 23-257, limits assumed).
T2 construct: construct not described; also called human TNFR2 protein
T2 sequence (looked up): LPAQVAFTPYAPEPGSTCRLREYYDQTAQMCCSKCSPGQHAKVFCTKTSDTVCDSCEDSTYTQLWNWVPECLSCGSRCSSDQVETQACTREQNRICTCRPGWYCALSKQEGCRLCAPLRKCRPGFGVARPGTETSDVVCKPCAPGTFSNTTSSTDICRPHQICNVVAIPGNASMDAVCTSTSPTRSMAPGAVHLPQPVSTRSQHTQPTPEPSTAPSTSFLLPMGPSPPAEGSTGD
The assay is described as follows: competition ELISA, human TNFR2 coated, competitor human TNFα-Biotin. Here is the method:
1 μg/ml human TNFR2 (Novoprotein, Cat #C830) was pre-coated with 100 μl/well […] in an ELISA plate. All the test TNFR2 antibodies were subjected to 2.5-fold gradient dilution from the highest concentration of 30 μg/ml; the diluted antibodies were mixed with 15 ng/ml human TNFα-Biotin (Acro Biosystem, Cat #TNA-H82E3) in equal volume, respectively; the resulting mixture was added to the ELISA plate at 100 μl/well, and incubated with shaking at room temperature for 2.0 hours. The plate was washed, and then a Streptavidin-HRP working solution (diluted at 1:10000) was added at 100 μl/well, and the mixture was incubated with shaking at room temperature for 40 minutes. The plate was washed again, and then the substrate TMB of HRP was added to develop colour. A stop solution was added to stop the reaction, and then a microplate reader (MD 13) was used to read the absorbance value. The inhibitory curve of an antibody was drawn with antibody concentration as the abscissa and corresponding OD value as the ordinate, and fitted with four parameters (GraphPad Prism9) to calculate the IC50 value. The smaller the IC50 value, the stronger the ability of an antibody to inhibit the binding of human TNFα to human TNFR2. The blocking effect of a humanized antibody was normalized to its corresponding human-murine chimeric antibody WT. The higher the percentage value, the better the inhibitory effect of the humanized antibody.

Assay [3] addresses T3, Human TNFR2-His (Sino 10417-H08H) (human, UniProt P20333 23-257).
T3 construct: Bought protein; also called recombinant human TNFR2 protein; not shown: His tag
T3 sequence (looked up): T2 sequence (looked up)
The assay is described as follows: ELISA, human TNFR2-His coated. Here is the method: The test humanized antibody against TNFR2 (as described in Example 1, the antibody was comprised of variable regions linked to IgG-Fc; the WT chimeric antibody also adopted the IgG-Fc structure) was subjected to 3.33-fold gradient dilution, loaded with 100 μl/well, and incubated with shaking at room temperature for 1.5 hours. The plate was washed, and then a working solution of murine anti-human IgG Fc-HRP (diluted at 1:10000) was added, loaded with 100 μl/well, and incubated with shaking at room temperature for 1.0 hour. The plate was washed again, and then the substrate TMB of HRP was added to develop colour. A stop solution was added to stop the reaction, and then a microplate reader (MD 13) was used to read the absorbance value. The binding curve of an antibody was drawn with antibody concentration as the abscissa and corresponding OD value as the ordinate, and fitted with four parameters (GraphPad Prism9) to calculate the EC50 value. The smaller the EC50 value, the stronger the binding ability of an antibody to human/cynomolgus monkey TNFR2. The binding effect of a humanized antibody was normalized to its corresponding human-murine chimeric antibody WT (see SEQ ID NOs: 38-43 for the sequence). The higher the percentage value, the better the binding effect of the humanized antibody. The results of binding of an anti-TNFR2 antibody to a human TNFR2 protein are shown in FIG. 1 and Table 4, and the results of binding of an anti-TNFR2 antibody to cynomolgus monkey TNFR2 are shown in FIG. 2 and Table 4.

B1: 224-Hu5 (antibody, V domains shown)
VH: QVQLVQSGSELKKPGASVKVSCKASGFNNKDIYMHWVRQAPGQGLEWMGRIDPATGNTKHDPKFQDKAVLSSDTSVSTAYLQISSLKAEDTAVYYCARSPYGDFGAMDYWGQGTLVTVSS
VL: DIQMTQSPSSLSASVGDRVTITCTASSSVSSNYLHWYQQKPGKAPKLLIYSTSNLPSGVPSRFSGSGSGTDYSLTISSLQPEDFATYYCHQYHRSPWTFGQGTKVEIK
notes: Humanized form of #224; also called VH9 + VL9
B1: the “% Relative activity (WT antibody/test antibody)” value in assay [1] came out at 112%. The same molecule returned an IC50 in assay [2] of 0.528 µg/mL. This molecule also yielded an EC50 in assay [3] of 0.0116 µg/mL.
